Test results reported in the nanobody polyreactivity screen of Harvey et al. (2022).

Test: yeast display, Sf9 membrane polyspecificity reagent, FACS + sequencing; frameworks hold sequencing errors
How it was run: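 A nanobody's polyreactivity label depends on the gate it was sorted from. Yeast display cells were stained with 10% biotinylated, detergent-solubilized Sf9 membrane reagent for 1 hour at 4 °C, enriched on streptavidin microbeads and sorted by FACS. The low and high (top ~1%) gates were set on anti-HA fluorescence for expression and streptavidin fluorescence for reagent binding.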

QVQLVESGGGLVQAGGSLRLSCAASGIIFRYYAMGWYRQAPGKERELVAAISGRGGSTYYADSVKGRFTISRDNAKNTVYLQMNSLKPEDTAVYYCAIYVSWPLYYYWGQGTQVTVSS
polyreactivity (PSR sort gate): low polyreactivity

QVQLVESGGGLVQAGGSLRLSCAASGIIFRYYAMGWYRQAPGKERELVAAITVNGGRTYYADSVKGRFTISRDNAKNNVYLQMNSLKPEVTAVYYCAAYPHRYRVTPYPSVVSLDNYWGQGTQVTVSS
polyreactivity (PSR sort gate): low polyreactivity

QVQLVESGGGLVQAGGSLRLSCAASGIIFRYYAMGWYRQAPGKERELVATISWRGGSTYYADSVKGRFTISRDNAKNTVYLQMNSLKPEDTAVYYCAAAISYSARGGKGLGGYWGQGTQVTVSS
polyreactivity (PSR sort gate): high polyreactivity

QVQLVESGGGLVQAGGSLRLSCAASGIIFSANAMGWYRQAPGKERELVAAISRDGSTYYADSVKGRFTISRDNAKNTVYLQMNSLKPEDTAVYYCAVDPIYYWRPGYDYWGQGTQVTVSS
polyreactivity (PSR sort gate): low polyreactivity

QVQLVESGGGLVQAGGSLRLSCAASGIIFSAYAMGWYRQPPGKERELVAVIDSDGDGTYYADSVKGRFTISRDNAKNTVYLQMNSLKPEDTAVYYCAADYEYTRVEGWFIGFDEYGYWGQGTQVTVSS
polyreactivity (PSR sort gate): low polyreactivity

QVQLVESGGGLVQAGGSLRLSCAASGIIFSDNAMGWYRQAPGKERELVAAIDWSGGSTYYADSVKGRFTISRDNAKNTVYLQMNSLKPEDTAVYYSAAEYRDYVPVNDTGDYWGQGTQVTVSS
polyreactivity (PSR sort gate): low polyreactivity

QVQLVESGGGLVQAGGSLRLSCAASGIIFSDNAMGWYRQAPGKERELVAAIDWSGGSTYYADSVKGRFTISRDNAKNTVYLQMNSMKPEDSAVYDCAAEYRDYVPVNDTGDYWGQGTQVTVSS
polyreactivity (PSR sort gate): low polyreactivity

QVQLVESGGGLVQAGGSLRLSCAASGIIFSDYTMGWYRQAPGKERELVAAITWSGASTYYADSVKGRFTISRDNAKNTVYLQMNSLKPEDTAVYYCAAREYWYPGYVSWFDYWGQGTQVTVSS
polyreactivity (PSR sort gate): high polyreactivity

QVQLVESGGGLVQAGGSLRLSCAASGIIFSGYAKGWSRQAPGKERELVAAISYSGASTYYADSVKGRFTISRDNAKNSVYLLMNSLKPEDTAVYFCAADRRYGRYWNGWSYYYWGQGTQVTVSS
polyreactivity (PSR sort gate): high polyreactivity

QVQLVESGGGLVQAGGSLRLSCAASGIIFSIYAMGWYRQAPGKERELVAAISGRGGRTYYADSVKGRFTISRDNAKNTVYLQMNSLKPVDTAVYYCNAEYHDLYDYWGQGTQVTVSS
polyreactivity (PSR sort gate): low polyreactivity

QVQLVESGGGLVQAGGSLRLSCAASGIIFSKNTMGWYRQAPGKERELVAAISRSGGTSTYYADSVKGRFTISRDNAKNTVYLQMNSLKPEDTAVYYCAAGVPRIGGYYYWGQGTQVTVSS
polyreactivity (PSR sort gate): low polyreactivity

QVQLVESGGGLVQAGGSLRLSCAASGIIFSQYAMGWYRQAPGKERELVAGITRSGGSTYYADSVKGRFTISRDNAKNTVYLQMNSLKPEDTAVYYCAAVQRYEYGYWGQGTQVTVSS
polyreactivity (PSR sort gate): high polyreactivity

QVQLVESGGGLVQAGGSLRLSCAASGIIFSRNVMGWYRPAPGKERELVAVISGSGGSTYYADSVKGRFTISRDNAKNTVYLQMNSLKPEDSAVYYCAASYEYLWGYDYEYWGQGTQVTVSS
polyreactivity (PSR sort gate): high polyreactivity

QVQLVESGGGLVQAGGSLRLSCAASGIIFSSNAMGWYRPAPGKERELVAAISNTGRTNYADSVKGRFTISRDNEKNTVYLQMNSLKPEDTAVYYCDARLSRRYYSYYYWGQGTQVTVSS
polyreactivity (PSR sort gate): high polyreactivity

QVQLVESGGGLVQAGGSLRLSCAASGIIFSSYAMGWYRQAPGKERELVAAISWSGGSTYYADSVKGRFTISRDNAKNTVYLQMNSLKPEDTAVYYCAAYPVWYYEYDYWGQGTQVTVSS
polyreactivity (PSR sort gate): low polyreactivity

QVQLVESGGGLVQAGGSLRLSCAASGIIFSTYAMGWYRQAPGKERELVAAISSGGRTYYADSVKGRFTISRDNAKNTVYLQMNSLKPEDTAVYYCAASYYRYYSGWTPYYYWGQGTQVTVSS
polyreactivity (PSR sort gate): high polyreactivity

QVQLVESGGGLVQAGGSLRLSCAASGIIFSTYAMGWYRQAPGKERELVAAITSTGSTNYADSVKGRFTISRDNAKNTVYLQMNSLKPEDTAVYYCAARYAGPSPTDTGHDYWGQGTQVTVSS
polyreactivity (PSR sort gate): low polyreactivity

QVQLVESGGGLVQAGGSLRLSCAASGIIFSWYAMGWYRQAPGKERELVASITIGGNTNYADSVKGRFTISRDNAKNTVYLQMNSLKPEDTAVYYCAAQTFWYGYGGGDYWGEGTQVTVSS
polyreactivity (PSR sort gate): low polyreactivity

QVQLVESGGGLVQAGGSLRLSCAASGIIFSWYAMGWYRQAPGKERELVATISGGGGSTYYADSVKGRFTISRDNAKNTVYLQMNSLKPEDTAVYYCAADYWNFNWRYKLYRPYDYWGQGTQVTVSS
polyreactivity (PSR sort gate): high polyreactivity

QVQLVESGGGLVQAGGSLRLSCAASGIIFSYNAMGWYRQAPGKERELVAAINSSGGSTNYADSVKGRFTISRDNAKNTVYLQMNSLKPEDTAVYYCAARDATYYGVWRYYGIDDYWGQGTQVTVSS
polyreactivity (PSR sort gate): low polyreactivity

QVQLVESGGGLVQAGGSLRLSCAASGIIFSYNAMGWYRQAPGKERELVAAITSIGGRTYYADSVKGRFTISRDNAKNTVYLKMNSLKPEDCAVYYCAVVAAFYNSPEGDYWGQGTQVTVSS
polyreactivity (PSR sort gate): low polyreactivity

QVQLVESGGGLVQAGGSLRLSCAASGIIFSYYAMGWYIQAPGKERELVAVINSGGSTYYADSVKGRFTISRDNAKNTVYLQMNSLKPEDTAVYYCAATIFVKFYYWGQGTQVTVSS
polyreactivity (PSR sort gate): low polyreactivity

QVQLVESGGGLVQAGGSLRLSCAASGIIFSYYAMGWYRQAPGKERELVAAISSSGVSTNYADSVKGRFTISRDNAKNTVYLQMNSLKPEDTAVYYCNGRGYYWYRPYVNSNGGYWGQGTQVTVSS
polyreactivity (PSR sort gate): high polyreactivity

QVQLVESGGGLVQAGGSLRLSCAASGIIFSYYAMGWYRQAPGKERELVAAITWSVGSTDYADSVKGRFTISRDNAKNTVYLQMNSLKPEDTAVYYCAATITTLDWDDRYDYWGQGTQETVSS
polyreactivity (PSR sort gate): low polyreactivity

QVQLVESGGGLVQAGGSLRLSCAASGIIFSYYTMGWYRPAPGKERELVAAISARGGRTYYADSVKGRFTISRDNAKNTVYLQMNSLKPEDTAVYYCAASWSTEYYWGQGTQVTVSS
polyreactivity (PSR sort gate): high polyreactivity

QVQLVESGGGLVQAGGSLRLSCAASGIIFTDNAMGWYRQAPGKARELVATISWSTDNTYYADSVKGRFTISRDNAKNTVYLQMNSLKPEDTAVYYCAAGWQIIQGSQYDYWGQGTQVTVSS
polyreactivity (PSR sort gate): low polyreactivity

QVQLVESGGGLVQAGGSLRLSCAASGIIFTDYAMGWYRQAPGTERELVAAISSGGGSTYYADSVKGRFTISRDNAKYSVYLQMNSLKPDDTAVYYGAAQSSGSYGFDHWGQGTQVTVSS
polyreactivity (PSR sort gate): high polyreactivity

QVQLVESGGGLVQAGGSLRLSCAASGIIFTFNARGWDRQAPGKERELVASISITGDTYYADSVKGRFTISRDNAKNTVYLQMNSLKPEDTAVYYCAAEYYFYSRHWYISYDYWGQGTQVTVSS
polyreactivity (PSR sort gate): low polyreactivity

QVQLVESGGGLVQAGGSLRLSCAASGIIFTFYGMGWYRQAPGKERELVAAIRTGGSTTYADSVKGRFTISRDNAKNTVYLQMNSLKPEDTAVYYCAAERYWVFHGTISYNYDYWGQGTQVTVSS
polyreactivity (PSR sort gate): low polyreactivity

QVQLVESGGGLVQAGGSLRLSCAASGIIFTKYVMGWYRQAPGKERELVAAINTDGGSTRYADSVKGRFTISRDNAKNTVYLQMNSLIPEDTAVYYCNTVWFYGAKYDYWGQGTQVTVSS
polyreactivity (PSR sort gate): high polyreactivity

QVQLVESGGGLVQAGGSLRLSCAASGIIFTPYNMGWYRQAPGKERELVAASTGSGGSTYYADSVKGRFTISRDNAKNTVDLQMNSLKPEDTAVYYCAAYKQYRFYRYDYWGQGTQVTVSS
polyreactivity (PSR sort gate): high polyreactivity
